Experimental data from the nanobody polyreactivity screen of Harvey et al. (2022).

Assay: yeast display, Sf9 membrane polyspecificity reagent, FACS + sequencing; frameworks hold sequencing errors
Method in brief: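 A synthetic nanobody library was expressed on Saccharomyces cerevisiae BJ5465 by galactose induction for 36–48 hours. The library was stained for 1 hour at 4 °C with 10% biotinylated, detergent-solubilized Sf9 membrane reagent and enriched with streptavidin microbeads before FACS. Low and high (top ~1%) gates were set on anti-HA fluorescence for expression and streptavidin fluorescence for reagent binding, and each polyreactivity label reflects the gate of origin.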

| Sequence | polyreactivity (PSR sort gate) |
| --- | --- |
| QVKLVESGGCLVKAGGSLRLSCAATGRIFLYYAMGWYRQAPGKEMELVATITSGGRTNYADSVKGRFTISRDNAKNTVYLQMNSLKPVDTAVYNCARQSYGSYRRYGFSALYGYLGQGTQVTVSS | high polyreactivity |
| QVKLVESGGGLDQAGGSLRLSCAASGTIFRKNAMGWYRQAPGKERELVAAMTGTGRTTYADSVKGRFTISRDNAKNTFYLQMNSLKPEDTAVYYCAADVNYYQHRLYYWGQGTQVTVSS | low polyreactivity |
| QVKLVESGGGLFQAGGSLRLSCAASGITFTFNAMGWYRQAPGKERELVAAITWSGGSTFYADSVKGRFTISRDNAKNTVYLQMNSLKPEDTAVYYCARDTELYVRWLDYWGQGTQVTVSS | low polyreactivity |
| QVKLVESGGGLVKAGASLRLSCAASGSTLQHYAMGWYRQAPGKERELVAAINRSGDRTYYADSVKGRFTISRDNAKTTVYLQMNSLKPEDTPVDYCAAYDDYRAPVRYEYWGQGTQVTVSS | high polyreactivity |
| QVKLVESGGGLVQAGCSLRLTCAASGSTSDMKAMGWYRQAPGKERELVAAISYSGGSTYYADSVKGRFTMSRDNAKNTVYLQMNSLKPEDTAVYYCAKQVADRYDYWGQGTEVTVSS | low polyreactivity |
| QVKLVESGGGLVQAGGRLRLSCAASGSIFTYYAMGWYRQAPGKERELVAAISYGGGSTYYADSVKGRFTISRDNAKYTVYLQMNSLKPEDTAVYDCNGVLGVNYGYWGQGTQVTVSS | high polyreactivity |
| QVKLVESGGGLVQAGGSLRLICAASGRISQSNAMGRYRQAPGKERELVAAISWRGGSTYYADSVMGRFTISRDNAKNTVYLQMNSLKPEDTAVYYSAVRGKYDRHYYWGQGTQVTVSS | high polyreactivity |
| QVKLVESGGGLVQAGGSLRLRCAASGIIFDYYAMGWYRQAPGKERELVAAISKRGGSTYYADSVKGRFTISRDNAKNTVYLQMNSLKPEDTAVYYCAAVYAREAKRYDYWGQGTQVTVSS | high polyreactivity |
| QVKLVESGGGLVQAGGSLRLSCAASGFTFRRYAMGWYRQAPGKERELVAGITSGGSTYYADSVKGRFTISRDNAKNTVYLQMNSLKPEDTAVYYCNTKVISRTSERRGNGFTRYDYWGQGTQVTVSS | low polyreactivity |
| QVKLVESGGGLVQAGGSLRLSCAASGFTFYYYTMGGSRQAPGKERELVAAITSRGGNTYYADSVKGRFTISRDYEKNTVYLQMNSLKPEDTAVYYCAACLFSSRCYGYWGQGTQVTVSS | high polyreactivity |
| QVKLVESGGGLVQAGGSLRLSCAASGFTIRSYVMGWYRQAPGKERELVAAIRRSGGSTYYADSVKGRFTISRDNAKNTVYFQMNSLKREDTAVYYCAAYIWWRDYIEFDYWGQGTQVTVSS | high polyreactivity |
| QVKLVESGGGLVQAGGSLRLSCAASGGIFSPNAMGWYRHAPGKERELVAAISSNGGSTNYADSVKGRFTISRDNAKNTVYLQMNSLKPEDNAVYYCAKVYRSIGPNVSRYGLSYYYWGQGTQVTVSS | low polyreactivity |
| QVKLVESGGGLVQAGGSLRLSCAASGGNFGNYAMGWYRQAPWKERELVATIRYRGGSTYYADSVKGRFTISRDNAKITVYLQMNSLIPEDTAVFYCAARRSHPQDPRFRYGYWGQATQVTVSS | high polyreactivity |
| QVKLVESGGGLVQAGGSLRLSCAASGGNFYRYAMGWYRQAPGKERELVAAITRGDSTNYADSVKGRFTISRDNAKNTVYLQMNSLKPEDTAVYYCNAAVSARQNDTGGFQGDYWGQGTQVTVSS | low polyreactivity |
| QVKLVESGGGLVQAGGSLRLSCAASGLTFDHNVMGWYRPAPGKERELVAAISRSGSSTYYADSVKGRFTISRDNAKNTVYLQMNSLKPEDTAVYYCAAARSRYSYATGFDYWGQGTQVTVSS | high polyreactivity |
| QVKLVESGGGLVQAGGSLRLSCAASGLTYLYTMGWSRQAPGKERELVAAITRSGRTYYADSVKGRFTISRDNAKNTVYLQMNSLKPEDTAVYYCATRTGYQQPDGRYYYWGQGTQVTVSS | high polyreactivity |
| QVKLVESGGGLVQAGGSLRLSCAASGRIFLWYAMGWYRQEPGKERELVAAISSNGGSTRYAHSVKGRFTISRDNAKNTVYLQMNSLKPEDTAVYYCNADVHWNRYPYGGNGYGYWGQGTQVTVSS | low polyreactivity |
| QVKLVESGGGLVQAGGSLRLSCAASGRIFYGYTMVWYRQAPGKERELVAAISSSGGSTYYADSVKGRFTISRDNAKNTVYLQMISLKPEDTAVYYCAAYVPYSPYHVEFNYWGQGTQVTVSS | high polyreactivity |
| QVKLVESGGGLVQAGGSLRLSCAASGRTFGIYAMGWYRQAPGKERELVAAITWSGDSTYYADSVKGRFTISRDNAKNTVYLQINSLKPEDTAVYYCAADYVGVTSVRYDYWGQGTQVTVSS | low polyreactivity |
| QVKLVESGGGLVQAGGSLRLSCAASGSIFLGNAMGWYRQAPGKERELVATISSSDGSTDYADSVKGRFTISRDNAKNTVYLQMNSLKPEDTEVYYCNADYSYGTTLDYWGQGSQVTVSS | low polyreactivity |
| QVKLVESGGGLVQAGGSLRLSCAASGSIFLSYAMGWYRQAPGKDRELVAAISGGGGSTYYADSVKGRFTISRDNAKNTVYLQMNSLKPEDTAVYYCAADYYYGDALSPYYPHWDFYYWGQGTQVTVSS | low polyreactivity |
| QVKLVESGGGLVQAGGSLRLSCAASGSIFWGYDMGWYRQAPGKERELVARISYSGGSTSYADSVKGRFTISRDNAKNTVYLQMNSLKPEDTAVFYCAADEGGFWWTYPYDSLGQGTQVTVSS | low polyreactivity |

| Sequence | polyreactivity (PSR sort gate) |
| --- | --- |
| QVKLVESGGGLVQAGGSLRLSCAASGSTVVFNTMGWYRQAPGKERELVAAISTGDSTKYADSVKGRFTISRDNAKITVYLQMNSLKPVDTAVDYCAADTQDRTYYGWRQVGGYDYWGQGTQVTVSS | low polyreactivity |
| QVKLVESGGGLVQAGGSLRLSCADSGSIFWTYAIVWYRHAPGKERELVAAINSSDGTYYADSVKGRFTISRDNAKNTVYLQMNSLKPEDTAVYYCNADRDALFGYDYDYWGQGTQVTVSS | low polyreactivity |
| QVKLVESGGGLVQAGGSLRLSCAESGRIFHHYAMGWYRQAPGKERELVAAITGGGSTYYADSVKVRFTISRYNAKITVYLQMNSLKPEDTAVYYCAAPPFGYYEVGYDSWGQGSQVTVSS | low polyreactivity |
| QVKLVESGGGLVQAGGSLRLSFPASGRTFKYYAMGLYRQEPGKDRELVAAISWSGGSTYYADSVKGRFTISRDNEKNTVYLQMNSLKPEDTAVYYCAAVRHYHGTWYDYWGQGTQVTVSS | high polyreactivity |
| QVKLVESGGGLVQAGGSLRLTCDASGRIFSSYAMGWYRQAPGKERELVAAIRSSGDRTYYADSVKGRFTISRDNAKNTVYLQMNSLKPEDTAVYYCAARAVLKSWAYYYWGQGTQVTVSS | high polyreactivity |
| QVKLVESGGGLVQAGGSLSLSCAASARIFSAYAMGWYRQAPGKEMELVAAISYSGGSTYYADSVKGRFTIARDNAKNTVYLQMNSLKPEDTADYYCAADTVYGYQWGQGTQVTVSS | low polyreactivity |
| QVKLVESGGGLVQAVGSLRLSCAPSGFTLGSYAMGCYRQAPGKESELVAAITYSGSRTYYADSVKGRFTISRDNAKNTVYLQMNSLKPEDTAVYYCAAVTHYGFDYWGQGTQVTVSS | high polyreactivity |
| QVKLVETGGGLVQAGGSLRLSCAASGRTFTPYTMGRYRQAPGKEREFVAAITFRGGSTYYADSVKGRFTISRDIAKNTVYLQMNSLKPEDTEVYFCNARGHGGWGTSMYYWGHGTQVTVSS | high polyreactivity |
| QVKRVESGGGIVQAGGSLRLSCAASGSTFHKNVMGWYRQEPGKERELVAAISIIGVRTYYADSVKGRFTISRDNAKNTVYLQINSLKQVDTAVYYCNTDTQNRRGSGRGFWGEGTQVTVSS | high polyreactivity |
| QVKRVESGGGLVQAGGSLRLSCAASGSIVVTNAMGWYRQAPGKERELVAAITSSGSTDYADSVKGRFTISRDNAKNTVSLLMKILKREDTAVYYCNADVATGIFYGYDSWGQGTQVTVSS | low polyreactivity |
| QVLLQESGGGLVLAGGSLRLGCAASGTISPAYYMGRYHQAPGKEREFVAAITYGTNTYYADSVKGRFTISRDNAKYTVYLQMHSLKPEDTAVYYCSATAGYNGAHDYWGQGTQVTVSS | low polyreactivity |
| QVLLQESGGGLVQAGGSLRLSCAAIGTISTDIRMGWYRLAPGKEREFVASIDGCSTTYYADSVTGRFTISRDNAKNTVYLQMNSLKPEDTAMFYCAAREATEFYLYYWGQGTQVTVSS | low polyreactivity |
| QVLLQESGGRLVQAGGSLRLGCEPSGTISPAYYMGRYHQAPGKEREFVAAITYGTNTYYADSVKGRCTISRDIAKNTVYLQMNSLKPEDSAVYYCSATAGYNGAHDYCGQGTQVTVSS | low polyreactivity |
| QVLLVESGGGIVQAGGSLRLSCAASGIIFYVNAMGWYRQAPGKERELVAAITFGGDSTYYADSVKGRFTISRDNAKNTVYLQMNSLKPEDTAVYYCATDGDPAYPEMEYWGQGTQVTVSS | low polyreactivity |
| QVLLVESGGGLVQAGGSLRLSCAASGFIFFKYAMGWYRQAPGKEREFVAAISKSGTSTYYADSVKGRFTISRDNAKNTVYLQLNILKPEDTAVYDCAARYGRGSAYPEYDYWGQGTQVTVSS | high polyreactivity |
| QVLLVESGGGLVQAGGSLRLSCAASGFIFPYNAMGWYRQAPGKERELVASISGSGRTNYADSVKGRFTISRDNAKNTVYLQMNSLKPEDTAVYYCNKRWYVQKGYDYWGQGTQVTVSS | high polyreactivity |
| QVLLVESGGGLVQAGGSLRLSCAASGRTFYWYAMGWYRQAPGKERELVAGISSGGGTYYADSVKGRFTISRDNAKNTVYLQMNSLKPEDTAVYYCAAASENIWVWQEYIEYDYWGQGTQVTVSS | low polyreactivity |
| QVLLVESGGGLVQAGGSLRLSCAASGSIFWGYDMGWYRQAPGKDSELVAVISWSTTSTYFADSVKGRFTISRDNANNTVYLLMNSLKAEDTAVYYCNSEAYQYWEFDYWGQGTQVTVSS | low polyreactivity |
| QVLLVESGGGLVQAGGSLRLSCAASGSTFNYNAMGWYRQAPGKERELVAVITSGGRTNYADSVKGRFTISRDNAKNTVYLQMNSLKPEDTAVYSCNAEHVSYHFNLKYSGESWGQGTQVTVSS | low polyreactivity |
| QVLLVESGGGLVQAGGSLRLSCAASGSTLYDYAMGWYRQAPGKETELVAAINGSGGSTYYADSVKGRFTISRDNAKNTVYLQMNSLKPEDTAVYYCNAKRYGFFYWQGDYCGQGTQVTVSS | low polyreactivity |
| QVLLVESGGGLVQAGGSLRLSCAASRSIFEVNPMGWYRQAPGKERELVAAISCSGGSTYYADSVKGRFTISRDNAKNTVYLQMNSLKPEDTAVYYCAARQAGYSGRKLYYWGQGTQVTVSS | low polyreactivity |
